The text below walks through data of patent US20180221438A1, “MODULATING URACIL-DNA GLYCOSYLASE AND USES THEREOF” (Adaerata Limited Partnership, priority 2015, published 2018).

Assay [1] has as its target T1, UNG (Mus musculus, UniProt P97931).
T1 construct: endogenous in cells; host or cells: CH12F3 (CH12F3-2) mouse B lymphoma cells, with or without retrovirally expressed Ugi and shRNAs; sonicated whole-cell extract
The assay can be described thus: UNG activity assay with CH12F3 cell extracts. It counts as biochemical. The following applies: CH12F3 Ugi cell extracts. The procedure:
UNG activity assay was performed as previously described ^69 with minor modifications. Briefly, exponentially growing cells were washed in 1X PBS buffer, resuspended in HED buffer (25 mM Hepes, 5 mM EDTA, 1 mM dithiothreitol and 10% glycerol at pH 7.8) with complete protease inhibitors (Roche) and lysed by sonication (five pulses of 30 seconds) in a Bioruptor™ (Diagenode). After centrifugation at 14,000 rcf for 20 min at 4° C., the supernatant was frozen in aliquots into liquid nitrogen and stored at […]. UNG assays were carried out in HED buffer by mixing 10 μg of cell extract with 1 pmol of fluorescein-labeled oligonucleotide substrate in a final volume of 10 μl for 3 hours at 37° C. The double-stranded oligonucleotide with a single dU/dG mismatch was made by annealing 5′-[…](SEQ ID NO: 45)-fluorescein (FITC) to the complementary oligonucleotide, 5′-[…]-3′(SEQ ID NO: 46). The reaction was terminated by the addition of 10 UI of formamide loading dye and the products were resolved on 15% TBE-urea polyacrylamide gels. The apyrimidinic endonuclease (APE) activity present in the extracts was sufficient to cleave all the abasic substrate generated by UNG during the reaction. The FITC signal of the reaction products was visualized using a Typhoon Phosphorlmager™ (GE Healthcare).

Assay [2] deals with CH12F3 cells. The assay can be described thus: Terminal restriction fragment (TRF) analysis of telomeric DNA in CH12F3 cells. Type of assay: cell-based, mouse. The following applies: CH12F3 Ugi cells.
The subject of assay [3] is CH12F3 cells. The assay can be described thus: Anaphase bridges by DAPI staining in CH12F3 cells expressing E6 and E7. Type of assay: cell-based, mouse. The following applies: CH12F3 Ugi with E6 and E7, vs CH12F3 Ugi shAID and control GFP cells. The text has this:
Anaphase cells were visualized by DAPI staining of cells fixed with 2% paraformaldehyde in 1X PBS and attached to slides pre-treated with poly-lysine and analyzed as described previously ^33.

Assay [4] deals with CH12F3 cells. As to the kind of experiment: Proliferation of CH12F3 cells after CSR stimulation (cell number, CFSE dilution). Type of assay: cell-based, mouse. To be noted: CH12F3 Ugi cells stimulated for CSR; prevented by AID knockdown. The procedure:
B cell lymphoma cells, CH12F3-2 cells, were cultured in RPMI medium supplemented with 10% FBS, 0.05% 2- mercaptoethanol and 5% NCTC 109 (Sigma). CH12F3-2 cells stably expressing Ugi were obtained by retroviral delivery using pMIG vector as described before ^39. Class switching induction to IgA in CH12F3-2 cells was performed as previously published ^39. CSR to IgA in CH12F3-2 cells was determined with an Accuri C6™ Flow Cytometer (BD Biosciences). Mouse B cells were purified from freshly isolated splenocytes using anti-CD43 magnetic beads as described ^70. CSR was induced using 5 ? g/ml LPS (Sigma) and 20 ng/ml IL-4 (Preprotech). Cells were harvested for ChIP or metaphase spreads and FISH at 24 h post stimulation.

Assay [5] concerns CH12F3-2 cells. As to the kind of experiment: Cloning efficiency of single CH12F3-2 cells. To be noted: 14 days after single-cell dilution with cytokines to induce CSR to IgA, vs CH12F3-2 GFP. Type of assay: cell-based, mouse. The text has this: B cells must expand clonally while expressing AID during the GC reaction. Based on the results described above the inventors asked whether UNG deficiency might limit the proliferation capacity of transformed B-cells expressing AID. To assess the effect of UNG deletion on the proliferation of B-cells expressing AID, the inventors immunized WT and UNG-null mice with a T-dependent antigen to stimulate germinal center (GC) B-cell expansion and AID expression in vivo. The inventors used an AID-GFPtg reporter mouse that allows identifying AID+ GC B-cells in response to immunization ^6,28. […] This reduction was explained by the ˜3-fold smaller average GC size in Ung^−/− versus Ung^+/+ AID-GFPtg mice, rather than any difference in the number of GC (FIGS. 10C-D). […] However, it must be noted that at variance with immunization, which stimulates a few B-cells that need to undergo clonal expansion to form the GC, stimulation in vitro with cytokines causes massive proliferation accompanied by a high level of spontaneous cell death, which likely obscures the additional increase due to UNG-deficiency (not shown). To address this limitation, the inventors evaluated the cloning efficiency of single B-cells. […]

The subject of assay [6] is human DLBCL cell lines. The assay can be described thus: Growth curves of human DLBCL cell lines. It counts as cell-based. To be noted: DLBCL AID+ (Ocy-Ly3, Ocy-Ly10) and AID− (Ocy-Ly7, Ocy-Ly8) lines expressing Ugi. How it is done:
Stable shRNA-mediated knockdowns were generated in CH12F3-2 cells following protocols from the RNAi Consortium (TRC). Transfected cells were selected with puromycin at 1 μg/ml final concentration. For double knockdowns, CH12F3-2 cells were first transfected with a pLKO.1 neomycin version of the shRNA (shAID or shGFP) and selected, then transduced with the second shRNA and selected again with puromycin before analysis. CH12F3 Ugi cells transduced with pMIG-Ugi-IRES-GFP were generated as described ^39, and human lymphoma Ugi cells were generated by retroviral delivery using a pLPC-PURO system (pLPC-Ugi-PURO) and transduced cells were selected with 1 ug/m1 of puromycin. The Ugi protein from bacteriophage PBS2 and its ability to inhibit eukaryotic UNG have been described ^69,31.
The inventors therefore stratified human DLBCL cell lines on the basis of their AID protein levels into high (DLBCL AID^+) (Ocy-Ly3 and Ocy-Ly10 in FIG. 13A) or low expressing (DLBCL AID^−) lines (Ocy-Ly7 and Ocy-Ly8 in FIG. 13A) and established derivatives expressing Ugi for each one.

Assay [7] concerns the target E. coli UNG (Escherichia coli, UniProt P12295). To be noted: cited from earlier work.

T1 sequence (P97931 whole entry): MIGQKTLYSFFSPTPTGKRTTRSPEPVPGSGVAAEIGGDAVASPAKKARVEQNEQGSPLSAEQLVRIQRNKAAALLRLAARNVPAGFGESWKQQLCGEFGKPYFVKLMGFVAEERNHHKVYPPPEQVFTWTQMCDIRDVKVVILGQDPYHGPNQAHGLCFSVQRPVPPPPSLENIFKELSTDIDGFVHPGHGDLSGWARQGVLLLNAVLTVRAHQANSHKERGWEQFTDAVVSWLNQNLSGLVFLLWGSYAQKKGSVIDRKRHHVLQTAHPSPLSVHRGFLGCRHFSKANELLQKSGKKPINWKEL
E. coli UNG, sequence (P12295 whole entry): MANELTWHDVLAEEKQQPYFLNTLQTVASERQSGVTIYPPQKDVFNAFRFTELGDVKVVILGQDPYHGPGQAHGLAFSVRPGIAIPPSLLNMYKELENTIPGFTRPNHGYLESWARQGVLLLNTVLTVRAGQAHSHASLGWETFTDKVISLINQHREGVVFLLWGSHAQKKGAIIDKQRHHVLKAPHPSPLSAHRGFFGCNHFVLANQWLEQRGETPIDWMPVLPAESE

B1: Ugi: Uracil Glycosylase Inhibitor of Bacillus subtilis bacteriophage PBS1/PBS2, small protein (9.5 kDa), SEQ ID NO: 29; expressed in cells by retroviral delivery (protein)
chain: MTNLSDIIEKETGKQLVIQESILMLPEEVEEVIGNKPESDILVHTAYDESTDENVMLLTSDAPEYKPWALVIQDSNGENKIKML
modifications: bacillus subtilis
notes: expressed in cells by retroviral delivery
In the case of B1, the UNG activity entry in assay [1] is “lacked UNG activity”. Also, the “intra-telomeric G-rich single-stranded DNA” value in assay [2] (DNA treated with exonuclease before TRF analysis) is recorded as “MSH2-dependent increase in intra-telomeric G-rich single-stranded DNA”. In assay [2] (terminal restriction fragment analysis), the “telomere G-rich 3′ overhang signal” value is “normal telomere G-rich 3′ overhang signal”. Besides, the anaphase bridges entry in assay [3] is recorded as “significantly accumulated anaphase bridges”. Further, in assay [4], the “growth (total cell number or CFSE dilution assay)” value was “reduced growth”. Besides, the cloning capacity entry in assay [5] is on record as “significant decrease in the cloning capacity”. Also, the “growth of DLBCL cells” value in assay [6] was “only impaired the growth of DLBCL AID+ cells”. Also, the “inhibition of UNG” value in assay [7] is “inhibits E. coli UNG as well as UNG from other species”.
